Series [1] has as its target T1, SyPEPC (Synechocystis sp. PCC 6803, UniProt P74299, E954K).
T1 construct: gene ppc
The experiment in a line: malate dehydrogenase-coupled NADH assay, residual activity. Format: biochemical. The note with it: fumarate; allosteric.

The target of series [2] is T2, SyPEPC (Synechocystis sp. PCC 6803, UniProt P74299).
T2 construct: gene ppc
T2 sequence (P74299 1-1034): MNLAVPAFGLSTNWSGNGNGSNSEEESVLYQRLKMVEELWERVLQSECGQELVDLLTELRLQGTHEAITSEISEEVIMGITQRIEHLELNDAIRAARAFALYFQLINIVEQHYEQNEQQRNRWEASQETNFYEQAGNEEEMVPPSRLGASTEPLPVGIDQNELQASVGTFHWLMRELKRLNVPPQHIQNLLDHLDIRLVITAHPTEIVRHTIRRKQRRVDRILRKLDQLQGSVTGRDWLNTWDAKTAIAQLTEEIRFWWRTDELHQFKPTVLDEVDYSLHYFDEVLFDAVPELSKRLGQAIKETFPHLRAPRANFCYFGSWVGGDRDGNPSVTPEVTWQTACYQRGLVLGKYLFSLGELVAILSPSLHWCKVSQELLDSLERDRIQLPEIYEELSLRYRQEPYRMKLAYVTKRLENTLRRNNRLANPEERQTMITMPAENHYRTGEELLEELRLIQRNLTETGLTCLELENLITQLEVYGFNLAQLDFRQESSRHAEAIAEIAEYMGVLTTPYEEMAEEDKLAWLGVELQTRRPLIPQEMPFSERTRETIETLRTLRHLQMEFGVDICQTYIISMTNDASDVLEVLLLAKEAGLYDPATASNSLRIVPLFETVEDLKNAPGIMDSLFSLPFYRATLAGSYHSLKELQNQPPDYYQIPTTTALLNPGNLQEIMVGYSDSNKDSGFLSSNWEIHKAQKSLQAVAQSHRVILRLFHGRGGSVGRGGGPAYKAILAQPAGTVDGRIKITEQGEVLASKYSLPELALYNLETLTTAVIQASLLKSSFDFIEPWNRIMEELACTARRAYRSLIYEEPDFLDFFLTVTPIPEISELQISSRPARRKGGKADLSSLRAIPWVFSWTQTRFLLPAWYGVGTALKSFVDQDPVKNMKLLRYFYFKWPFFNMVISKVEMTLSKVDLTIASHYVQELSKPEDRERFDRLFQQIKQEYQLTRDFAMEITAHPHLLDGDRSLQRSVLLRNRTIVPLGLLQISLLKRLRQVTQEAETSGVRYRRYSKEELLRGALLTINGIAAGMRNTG
Described as above. Particulars: read-out: SyPEPC activity (in vitro). The class given is biochemical. The source says: malate dehydrogenase-coupled NADH assay, residual activity on SyPEPC

The next series addresses T3, AnPEPC (Nostoc sp. PCC 7120 = FACHB-418, UniProt P28594).
T3 construct: gene ppc
The description is as above. Format: biochemical. Particulars: read-out: % activity remaining at 1 mM.

Substrate in the series “purified protein”: O=C(O)O
Nature of the series: purified protein. Particulars: PEP.

Substrate in series [3]: C=C(OP(=O)(O)O)C(=O)O
Nature of the series: malate dehydrogenase-coupled NADH assay (A340), Lineweaver-Burk. The class given is biochemical, Nostoc sp. PCC 7120 = FACHB-418.

Substrate in series [4]: C=C(OP(=O)(O)O)C(=O)O
Described as above. The class given is biochemical, Synechocystis sp. PCC 6803.

For `O=C(O)/C=C/C(=O)O` [fumarate], the “% activity remaining” value on SyPEPC [1] is “The inhibitory effect of fumarate was also enhanced in SyPEPC_E954K compared with SyPEPC”. For the same molecule, the activity at 1000 µM at SyPEPC [2] turned out to be 75 ± 9.7%.

Turning to `O=C(O)C[C@H](O)C(=O)O` [malate], on AnPEPC, the remaining activity (usually what remains of the control signal, in per cent) at 1000 µM was < 30%. In addition, the activity at 1000 µM on SyPEPC [2] worked out at 77.1 ± 6.3%. Turning to `O=C(O)CCC(=O)O` [succinate], the activity at 1000 µM at SyPEPC [2] came to 124 ± 12.3%.

B1: AnPEPC (Nostoc sp. PCC 7120 = FACHB-418) (protein)
chain: MGSVLYSLSESANLYPASELFLRHRLQIVEELWESVLRQECGQNMVDLLRQLRDLCSPEGQATKDQAVSAVKLIEQLNINEAIRAARAFALYFQLINIIEQEYEQRQQLTRYSDLEAETAPLNGSENITSSSNHNEDDVIFNRGLGTDFLGKNWTNRGQGKQKGTFAALFPLLSKLNVPPQQIQRLISQLDVRLVFTAHPTEIVRHTIRDKQRQVVDLLQQLDEVENRAKDGGGYPWEAGEIREKLLEEIRLWWRTDELHQFKPTVLDEVDYALHYFQEVLFDGIPQLYKRFKYALNQTFSWLEPPSKDFCSFGSWVGSDRDGNPSVTPEITWQTACYQRKMVLERYIKSVTQLIELLSISMHWSDVLPDLLESLELDQSQLSEVYDALALRYRQEPYRLKLAYVLKRLENTRDRNLALYKGETPTNEDSPMYRSGSEFLAELRLIQHNLTETGLSCRELDNLICQVEIFDFNLTKLDIRQESTRHSDALNEILDYLQLLPQPYNDLSEEQRVAWLTTELQTRRPLISSELPFSDKTNDVIKTFRVVRSLQQEFGINICQTYIISMCRQVSDVLEVLLLAKEARLFDPAIAVGTIQVVPLFETVEDLQRSRSVMRQLFELPLYRALLAGGYKNTEVKVPNTELTPQSPAPSPQSVLTPDLQEVMLGYSDSNKDSGFLSSNWEIHKAQKSLQQIAEEYGVNLRIFHGRGGSVGRGGGPAHEAILAQPGHSINGRIKITEQGEVLASKYSLLDLALYNLETITTAVIQASLLRTGFDDIEPWNEIMEELAARSRQHYRGLIYEQPDFIDFFHQVTPIEEISQLQISSRPARRPSGKKDLSSLRAIPWVFSWTQTRFLLPSWYGVGTALQEFFNEEPEEHLKLMRYFYVKWPFFKMVISKVEMTLAKVDMQMAGHYVQELSDPEDKPRFEKVFEQIANEYYLTRDLVLKITDHGRLLDGDPVLQRSVQLRNGTIVPLGFIQVSLLKRLRQSKNNTATSGVIHSRYSKGELLRGALLTINGIAAGMRNTG
Consider B1, for which the Km (in general, the concentration of substrate that gives half-maximal velocity) was 0.24 mM in “purified protein” (10 mM MgCl2, pH and temperature not stated (optimum pH 8.0, 35 °C), pH 8.0, 35.0 °C); 1.1 mM in series [3] (50 mM NaHCO3, 10 mM MgCl2, pH and temperature not stated (optimum pH 8.0, 35 °C)).

B2: AnPEPC (Nostoc sp. PCC 7120 = FACHB-418; K946E) (protein)
chain: MGSVLYSLSESANLYPASELFLRHRLQIVEELWESVLRQECGQNMVDLLRQLRDLCSPEGQATKDQAVSAVKLIEQLNINEAIRAARAFALYFQLINIIEQEYEQRQQLTRYSDLEAETAPLNGSENITSSSNHNEDDVIFNRGLGTDFLGKNWTNRGQGKQKGTFAALFPLLSKLNVPPQQIQRLISQLDVRLVFTAHPTEIVRHTIRDKQRQVVDLLQQLDEVENRAKDGGGYPWEAGEIREKLLEEIRLWWRTDELHQFKPTVLDEVDYALHYFQEVLFDGIPQLYKRFKYALNQTFSWLEPPSKDFCSFGSWVGSDRDGNPSVTPEITWQTACYQRKMVLERYIKSVTQLIELLSISMHWSDVLPDLLESLELDQSQLSEVYDALALRYRQEPYRLKLAYVLKRLENTRDRNLALYKGETPTNEDSPMYRSGSEFLAELRLIQHNLTETGLSCRELDNLICQVEIFDFNLTKLDIRQESTRHSDALNEILDYLQLLPQPYNDLSEEQRVAWLTTELQTRRPLISSELPFSDKTNDVIKTFRVVRSLQQEFGINICQTYIISMCRQVSDVLEVLLLAKEARLFDPAIAVGTIQVVPLFETVEDLQRSRSVMRQLFELPLYRALLAGGYKNTEVKVPNTELTPQSPAPSPQSVLTPDLQEVMLGYSDSNKDSGFLSSNWEIHKAQKSLQQIAEEYGVNLRIFHGRGGSVGRGGGPAHEAILAQPGHSINGRIKITEQGEVLASKYSLLDLALYNLETITTAVIQASLLRTGFDDIEPWNEIMEELAARSRQHYRGLIYEQPDFIDFFHQVTPIEEISQLQISSRPARRPSGKKDLSSLRAIPWVFSWTQTRFLLPSWYGVGTALQEFFNEEPEEHLKLMRYFYVKWPFFKMVISKVEMTLAKVDMQMAGHYVQELSDPEDKPRFEKVFEQIANEYYLTRDLVLEITDHGRLLDGDPVLQRSVQLRNGTIVPLGFIQVSLLKRLRQSKNNTATSGVIHSRYSKGELLRGALLTINGIAAGMRNTG
As for B2, the Km in “purified protein” (10 mM MgCl2) worked out at 0.25 mM; in series [3] (50 mM NaHCO3, 10 mM MgCl2), 0.8 mM.

B3: SyPEPC (Synechocystis sp. PCC 6803 substr. Kazusa; E954K) (protein)
chain: MNLAVPAFGLSTNWSGNGNGSNSEEESVLYQRLKMVEELWERVLQSECGQELVDLLTELRLQGTHEAITSEISEEVIMGITQRIEHLELNDAIRAARAFALYFQLINIVEQHYEQNEQQRNRWEASQETNFYEQAGNEEEMVPPSRLGASTEPLPVGIDQNELQASVGTFHWLMRELKRLNVPPQHIQNLLDHLDIRLVITAHPTEIVRHTIRRKQRRVDRILRKLDQLQGSVTGRDWLNTWDAKTAIAQLTEEIRFWWRTDELHQFKPTVLDEVDYSLHYFDEVLFDAVPELSKRLGQAIKETFPHLRAPRANFCYFGSWVGGDRDGNPSVTPEVTWQTACYQRGLVLGKYLFSLGELVAILSPSLHWCKVSQELLDSLERDRIQLPEIYEELSLRYRQEPYRMKLAYVTKRLENTLRRNNRLANPEERQTMITMPAENHYRTGEELLEELRLIQRNLTETGLTCLELENLITQLEVYGFNLAQLDFRQESSRHAEAIAEIAEYMGVLTTPYEEMAEEDKLAWLGVELQTRRPLIPQEMPFSERTRETIETLRTLRHLQMEFGVDICQTYIISMTNDASDVLEVLLLAKEAGLYDPATASNSLRIVPLFETVEDLKNAPGIMDSLFSLPFYRATLAGSYHSLKELQNQPPDYYQIPTTTALLNPGNLQEIMVGYSDSNKDSGFLSSNWEIHKAQKSLQAVAQSHRVILRLFHGRGGSVGRGGGPAYKAILAQPAGTVDGRIKITEQGEVLASKYSLPELALYNLETLTTAVIQASLLKSSFDFIEPWNRIMEELACTARRAYRSLIYEEPDFLDFFLTVTPIPEISELQISSRPARRKGGKADLSSLRAIPWVFSWTQTRFLLPAWYGVGTALKSFVDQDPVKNMKLLRYFYFKWPFFNMVISKVEMTLSKVDLTIASHYVQELSKPEDRERFDRLFQQIKQEYQLTRDFAMKITAHPHLLDGDRSLQRSVLLRNRTIVPLGLLQISLLKRLRQVTQEAETSGVRYRRYSKEELLRGALLTINGIAAGMRNTG
Take B3: the Michaelis-Menten constant (Km) in the series “purified protein” (10 mM MgCl2) was 0.76 mM; in series [4] (50 mM NaHCO3, 10 mM MgCl2), 0.82 mM.

B4: SyPEPC (Synechocystis sp. PCC 6803 substr. Kazusa) (protein)
chain: MNLAVPAFGLSTNWSGNGNGSNSEEESVLYQRLKMVEELWERVLQSECGQELVDLLTELRLQGTHEAITSEISEEVIMGITQRIEHLELNDAIRAARAFALYFQLINIVEQHYEQNEQQRNRWEASQETNFYEQAGNEEEMVPPSRLGASTEPLPVGIDQNELQASVGTFHWLMRELKRLNVPPQHIQNLLDHLDIRLVITAHPTEIVRHTIRRKQRRVDRILRKLDQLQGSVTGRDWLNTWDAKTAIAQLTEEIRFWWRTDELHQFKPTVLDEVDYSLHYFDEVLFDAVPELSKRLGQAIKETFPHLRAPRANFCYFGSWVGGDRDGNPSVTPEVTWQTACYQRGLVLGKYLFSLGELVAILSPSLHWCKVSQELLDSLERDRIQLPEIYEELSLRYRQEPYRMKLAYVTKRLENTLRRNNRLANPEERQTMITMPAENHYRTGEELLEELRLIQRNLTETGLTCLELENLITQLEVYGFNLAQLDFRQESSRHAEAIAEIAEYMGVLTTPYEEMAEEDKLAWLGVELQTRRPLIPQEMPFSERTRETIETLRTLRHLQMEFGVDICQTYIISMTNDASDVLEVLLLAKEAGLYDPATASNSLRIVPLFETVEDLKNAPGIMDSLFSLPFYRATLAGSYHSLKELQNQPPDYYQIPTTTALLNPGNLQEIMVGYSDSNKDSGFLSSNWEIHKAQKSLQAVAQSHRVILRLFHGRGGSVGRGGGPAYKAILAQPAGTVDGRIKITEQGEVLASKYSLPELALYNLETLTTAVIQASLLKSSFDFIEPWNRIMEELACTARRAYRSLIYEEPDFLDFFLTVTPIPEISELQISSRPARRKGGKADLSSLRAIPWVFSWTQTRFLLPAWYGVGTALKSFVDQDPVKNMKLLRYFYFKWPFFNMVISKVEMTLSKVDLTIASHYVQELSKPEDRERFDRLFQQIKQEYQLTRDFAMEITAHPHLLDGDRSLQRSVLLRNRTIVPLGLLQISLLKRLRQVTQEAETSGVRYRRYSKEELLRGALLTINGIAAGMRNTG
B4: the Km in “purified protein” (10 mM MgCl2, pH 7.3, 30 °C, pH 7.3, 30.0 °C) is 0.80 mM; in series [4] (50 mM NaHCO3, 10 mM MgCl2, pH 7.3, 30 °C), 0.34 mM.

Source of the values: article PMC5259782, “Allosteric Inhibition of Phosphoenolpyruvate Carboxylases is Determined by a Single Amino Acid Residue in Cyanobacteria” (Scientific Reports, 2017).
